Test results reported in patent publication US20250289897A1, “LEPTIN RECEPTOR AGONISTIC ANTIBODY AS MONO OR COMBO THERAPIES TO TREAT OBESITY” (ELI LILLY AND COMPANY, priority 2024, published 2025).
Where “and” joins values, the source holds several entries; their conditions need not be identical. Identical values can stand only once.

Tests used:
[1] = target: leptin-LEPR interaction (Homo sapiens, UniProt P48357); assay: ELISA based competition binding assay of antibodies and leptin protein to LEPR
Protocol: To test whether the binding of anti-LEPR antibodies to LEPR will compete with leptin-LEPR interaction, an ELISA based competition binding assay was conducted.
Recombinant LEPR extracellular domain fused to hlgG1-Fc (LEPR-Fc) (SEQ ID NO: 30) was diluted in Phosphate Buffered Solution (PBS, Gibco, #20012-027) and applied onto a 96-well Costar assay plate (Corning, #3690) at 5 μg/mL and 50 μL/well. The solution was incubated at 4° C. for 20 hours to allow sufficient protein coating. The plate was then rinsed 3 times with 160 μL/well of 1x wash buffer (R&D, #WA126, 25x), blocked for 1 hour at room temperature with Casein blocking solution (ThermoFisher, #37582), and rinsed by wash buffer 2 times. Serial concentrations of anti-LEPR antibodies (Antibodies A, B, and C) were then diluted in 60 μL of Casein blocking solution and added to each well. Serial concentrations of LEPR-Fc (SEQ ID NO:30) were used as positive control to compete with plate-bound receptor for leptin. Casein blocking solution was used as negative control. The plate was incubated with either anti-LEPR antibodies, positive or negative controls for 90 minutes at room temperature. Next, recombinant human leptin protein (R&D, #398-LP-05M) diluted in 20 μL Casein blocking buffer was added to each plate to a final concentration of 2 nM. The plate was then mixed for 30 seconds with gentle shaking followed by another 90 minutes of incubation at room temperature. The plate was rinsed 3 times with wash buffer. […] Data was obtained by a microplate reader with light absorbance set to 450 nm (OD450). Average OD450 readings in casein coated wells (without LEPR-Fc (SEQ ID NO: 30) coating) were subtracted from all raw OD450 readings to generate the normalized OD450 readings. The average normalized OD450 readings from negative controls (2 nM leptin incubated wells without any competing articles) was set as 100 percent (100%) binding. All normalized OD450 readings were compared to this OD450 reading and presented as percentages of binding. The top and bottom of dose response curve and IC50 was calculated using GraphPad Prism software.

[2] = target: T1, FcRn (Homo sapiens, UniProt P55899); assay: Relative FcRn binding by FcRn-HPLC; conditions: FcRn affinity column; for Retention Time: pH gradient 5.5 to 8.8 over 90 minutes, main peak; for Peak Width: peak width at 50% peak height
T1 construct: purchased Roche 09430857001
Protocol: IgG binding to neonatal Fc receptor (FcRn) is a key mechanism for antibody recycling and a determinant of antibody pharmacokinetics (PK). […] Antibody-A is an IgG1 mAb with L234A, L235A, D265S mutations to reduce FcγR and Clq binding and M252Y, S254T, and T256E mutations to modulate the antibody's clearance profile. The impact of these combined mutation sets was assessed by FcRn-HPLC. Stock antibody solutions were diluted to 1 mg/mL into 20 mM MES, 140 mM NaCl, pH5.5. An Agilent 1290 HPLC equipped with an FcRn Affinity Column Gen2 (Roche, Cat #09430857001) was pre-equilibrated with 20 mM MES, 140 mM NaCl, pH5.5 with a flow rate of 0.2mL/min. 20 μμL antibody injections were made followed by 10 minute column wash with 20 mM MES, 140 mM NaCl, pH5.5. Antibodies were then eluted by pH gradient elution into 20 mM Tris, 140 mM NaCl, pH8.8 over 90 minutes. Chromatograms were blank-subtracted to remove baseline drift.

T1 sequence (P55899 24-297 limits assumed): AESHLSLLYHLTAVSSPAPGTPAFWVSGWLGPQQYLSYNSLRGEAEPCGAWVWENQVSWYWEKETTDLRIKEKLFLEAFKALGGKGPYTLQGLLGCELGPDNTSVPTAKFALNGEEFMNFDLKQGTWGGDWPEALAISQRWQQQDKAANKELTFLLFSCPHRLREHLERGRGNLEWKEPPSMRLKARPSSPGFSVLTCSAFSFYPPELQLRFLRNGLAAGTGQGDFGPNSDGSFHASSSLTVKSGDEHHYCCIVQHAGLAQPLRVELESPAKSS
T1 sequence (P61769 21-119 partner): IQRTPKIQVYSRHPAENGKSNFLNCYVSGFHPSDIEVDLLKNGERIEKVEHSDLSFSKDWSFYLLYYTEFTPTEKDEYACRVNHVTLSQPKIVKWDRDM
leptin-LEPR interaction, sequence (P48357 with tags, fused parts or gaps): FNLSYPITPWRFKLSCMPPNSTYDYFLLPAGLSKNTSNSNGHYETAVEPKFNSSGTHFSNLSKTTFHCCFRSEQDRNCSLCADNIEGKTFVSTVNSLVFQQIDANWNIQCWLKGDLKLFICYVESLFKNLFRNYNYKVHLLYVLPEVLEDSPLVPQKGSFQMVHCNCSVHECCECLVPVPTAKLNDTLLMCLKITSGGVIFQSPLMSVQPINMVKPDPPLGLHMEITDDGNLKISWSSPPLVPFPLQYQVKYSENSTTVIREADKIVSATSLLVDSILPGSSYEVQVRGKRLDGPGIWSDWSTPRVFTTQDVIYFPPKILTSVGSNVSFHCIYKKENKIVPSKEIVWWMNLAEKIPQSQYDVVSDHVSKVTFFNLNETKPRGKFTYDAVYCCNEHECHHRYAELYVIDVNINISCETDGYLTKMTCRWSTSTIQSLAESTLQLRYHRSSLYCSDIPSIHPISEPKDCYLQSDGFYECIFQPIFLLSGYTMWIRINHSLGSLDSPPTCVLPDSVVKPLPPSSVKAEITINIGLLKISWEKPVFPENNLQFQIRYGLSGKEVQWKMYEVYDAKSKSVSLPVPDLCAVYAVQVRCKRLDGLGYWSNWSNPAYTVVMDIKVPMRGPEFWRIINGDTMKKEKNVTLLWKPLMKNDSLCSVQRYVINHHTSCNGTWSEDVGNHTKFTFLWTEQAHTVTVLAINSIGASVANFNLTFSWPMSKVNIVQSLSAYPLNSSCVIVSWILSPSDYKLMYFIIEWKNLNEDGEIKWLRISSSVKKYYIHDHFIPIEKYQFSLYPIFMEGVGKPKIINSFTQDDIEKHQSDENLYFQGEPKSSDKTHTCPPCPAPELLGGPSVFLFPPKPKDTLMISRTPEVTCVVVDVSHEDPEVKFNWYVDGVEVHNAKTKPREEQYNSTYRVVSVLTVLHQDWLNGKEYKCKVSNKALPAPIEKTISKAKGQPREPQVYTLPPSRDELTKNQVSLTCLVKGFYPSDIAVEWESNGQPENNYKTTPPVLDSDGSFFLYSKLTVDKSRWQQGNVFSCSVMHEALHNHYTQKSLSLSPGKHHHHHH

Substance | Hill Slope ([1]; competition dose response curve) | Bottom (%) ([1]; percent leptin binding to plate-bound LEPR-Fc, 2 nM leptin, bottom of dose response curve) | Top (%) ([1]; percent leptin binding to plate-bound LEPR-Fc, 2 nM leptin, top of dose response curve) | Retention Time [2] | Peak Width [2]
hLEPR-TEV-hIgG1Fc: recombinant LEPR extracellular domain fused to hIgG1-Fc (SEQ ID NO: 30), positive control competing for leptin | −1.07 | 6.076% | 92.03% |  | 
Briakinumab |  |  |  | 88.9 min | 10 min and 10.0 min
Ustekinumab |  |  |  | 69.4 min | 1.9 min
